Read-outs that look alike come from different tables or passages of the source. One block for each molecule: values may come before it.
Experiments:
CP [1] = experiment: SPR binding of CP to immobilized GST-CD2AP / GST-CARMIL fragments; design: species or system chicken; conditions: 20°C; for kon / koff: SPR (Biacore), CP perfused, 1:1 binding model; for kon: GST-fusion immobilized via anti-GST antibody on CM5 chip, 50 mM KCl, 1 mM MgCl2, 0.005% Tween-20, 10 mM imidazole pH 7.0; for koff: GST-fusion immobilized
Experimental: (§1) Expression vectors for chicken CPfull and CPΔβC were constructed in pETDuet-1 by PCR, using pET-3d/CP [38] as the template. CP was expressed in E. coli Rosetta2 (DE3) and was purified as described. V-1 (human), expressed in E. coli Rosetta2 (DE3) as a GST-fusion protein, was affinity-purified and the tag was removed. Synthetic peptides derived from CARMIL proteins were obtained from Invitrogen. For crystallization, CP was incubated with a 1.2–2.0-fold molar excess of V-1 or CARMIL peptides at 4°C for 2 h, followed by gel filtration to purify the complexes. Expression vectors for the GST-CA constructs were prepared from the mouse cDNA clone as previously described. Vectors for GST-CD fragments were constructed by PCR cloning using a human whole brain cDNA library (Clontech) as the template. Amplified DNA fragments were cloned into pGEX-6P-1. GST-fusion proteins were expressed in E. coli Rosetta2 (DE3) cells and affinity-purified using glutathione sepharose resin. Mutations were introduced using a Quikchange mutagenesis kit (Stratagene). Actin was prepared from rabbit skeletal muscle, as previously described, and was further purified by gel filtration chromatography. Pyrene labeled-actin was prepared as described. Spectrin-actin seeds were prepared from rabbit red blood cells, as previously described.
(§2) The binding affinities of CP for V-1 or CARMIL proteins were evaluated by surface plasmon resonance measurements with Biacore 3000 or Biacore 2000 instruments (GE Healthcare). GST-fusion proteins (GST-V-1, GST-CA, or GST-CD) were immobilized onto a CM5 sensor chip up to 200 RU (response units; 200 pg/mm^2) via anti-GST antibodies. CP at various concentrations in running buffer (50 mM KCl, 1 mM MgCl2, 0.005% Tween-20, 10 mM imidazole, pH 7.0) was perfused over the chip at 20°C, at a flow rate of 20 µl/min. Response curves were obtained by subtracting the background signal generated simultaneously on a control flow cell with immobilized GST. To measure the effect of the CARMIL peptides on the facilitation of CP/V-1 dissociation (in Figure 11C and 11D), we used the “co-inject” mode for successive injections of the peptides followed by CP. Kinetic parameters were determined by fitting the sensorgrams to a simple 1∶1 binding model, using the Bia-evaluation software (GE Healthcare). KD values were obtained from the kinetic rate constants. […] KD values were evaluated by plotting these values against the concentrations of CP.

CP (β) D44N = experiment: SPR binding of mutant CP to immobilized GST-CD56 / GST-CA92; design: species or system chicken; conditions: analyte CP (β) D44N, 20°C, pH 7.0
Experimental: as §1, §2

CP (β) Y64F = experiment: as above; design: species or system chicken; conditions: analyte CP (β) Y64F, 20°C, pH 7.0
Experimental: as §1, §2

CP (β) D63N = experiment: as above; design: species or system chicken; conditions: analyte CP (β) D63N, 20°C, pH 7.0
Experimental: as §1, §2

CP (β) D67N = experiment: as above; design: species or system chicken; conditions: analyte CP (β) D67N, 20°C, pH 7.0
Experimental: as §1, §2

CPfull (wild type CP) = experiment: Actin polymerization assay (barbed end elongation from spectrin-actin seeds): inhibition of CP capping; assay type: biochemical, chicken; conditions: actin 1.2 µM (5% pyrene-labeled), 7.2 nM CPfull, 25°C (Figure 9F)
Experimental: (A) Superposition of the C-termini of the peptides. CD Phe505 and CK Arg169 are shown as stick models. The conserved proline at the C-terminus of the motifs is shown as balls. (B) CD2AP constructs used for biochemical assays. (C) CARMIL constructs used for biochemical assays. […] Actin (1.2 µM, 5% pyrene-labeled) was polymerized from spectrin-actin seeds in the presence of 3.6 nM CPfull (D), 10 nM CPβΔC (E), or 7.2 nM CPfull (F) with various concentrations of CARMIL peptides or GST-CA constructs.
The barbed end elongation assay from spectrin-actin seeds was performed essentially as previously described. Briefly, G-actin was stored in G-buffer (0.2 mM CaCl2, 0.2 mM ATP, 0.5 mM DTT and 10 mM imidazole, pH 7.0). At 90 s prior to polymerization, the Ca^2+ was replaced with Mg^2+, by the addition of 1/10 volume of 10 mM EGTA and 1 mM MgCl2 to G-actin. […] Actin polymerization was measured by monitoring the pyrene-actin fluorescence (excitation 370 nm; emission 410 nm) at 25°C.
(0.16 MB TIF) Click here for additional data file.

CP [2] = conditions: ref Fujiwara, et al.; cited from earlier work
Excerpt: We tested the importance of the C-terminal flanking regions of the CP-binding motif using a binding assay (Table 2; the constructs used for the measurement are shown in Figure 9B). […] In the second CP binding site in the CP/CBR115 complex, human CARMIL Val1034 (corresponding to mouse CA1038), which is missing in GST-76, forms multiple interactions with CP α-subunit residues. Thus, the absence of this key valine in GST-CA76 results in the lower CP binding affinity compared with the full active CARMIL fragments.

CP [3] = conditions: estimated, cited from earlier work
Excerpt: How do CARMIL proteins inhibit the capping activity of CP in an allosteric manner? […] We propose that CARMIL proteins inhibit CP in a similar manner (Figure 13C); CARMIL proteins limit the conformational distribution of CP to ...

B3: mCAH3: mCAH3 fragment, mouse CARMIL residues 965-1038 (protein, UniProt Q6EDY6 965-1038, looked up, fragment)
chain: VRQEKRSSGLISELPSEEGRRLEHFTKLRPKRNKKQQPTQAAVCTISILPQDGEQNGLMGRVDEGVDEFFTKKV
- Kd (CP [2]): ~1 nM

B5: CARMIL: multi-domain protein (∼150 kDa) that binds CP and uncaps filaments (protein, UniProt Q6EDY6 1-1374, looked up)
F-actin-uncapping protein …: MTDESSDVPRELMESIKDVIGRKIKISVKKKVKLEVKGDRVENKVLVLTSCRAFLLSARIPSKLELTFSYLEIHGVICHKPAQMVVETEKCNMSMKMVSPEDVSEVLAHIGTCLRRIFPGLSPLRIMKKVSMEPSERLASLQALWDSQTLAEPGPCGGFSQMYACVCDWLGFSYKEEVQWDVDTIYLTQDTRELNLQDFSHLEHRDLIPIIAALEYNQWFTKLSSKDLKLSTDVCEQILRVVSRSNRLEELVLENAGLRIDFAQKLAGALAHNPNSGLHTINLAGNSLEDRGVSSLSIQFAKLPKGLKHLNLSKTSLSPKGVNSLCQSLSANPLTASTLTHLDLSGNALRGDDLSHMYNFLAQPNTIVHLDLSNTECSLEMVCSALLRGCLQCLAVLNLSRSVFSHRKGKEVPPSFKQFFSSSLALIQINLSGTKLSPEPLKALLLGLACNHSLKGVSLDLSNCELGHCLRSGGAQVLEGCIAEIHNITSLDISDNGLESDLSTLIVWLSKNRSIQHLALGKNFNNMKSKNLTPVLDNLVQMIQDEDSPLQSLSLADSKLKAEVTIIINALGSNTSLTKVDISGNGMGDMGAKMLAKALQINTKLRTVIWDKNNITAQGFQDIAVAMEKNYTLRFMPIPMYDAAQALKTNPEKTEEALQKIENYLLRNHETRKYLQEQAYRLQQGIVTSTTQQMIDRICVKVQDHLNSLRACGGDAIQEDLKAAERLMRDAKNSKTLLPNLYHVGGASWAGASGLSSSPIQETLESMAGEVTRVVDEQLKDLLESMVDAAETLCPNVMRKAHIRQDLIHASTEKISIPRTFVKNVLLEQSGIDILNKISEVKLTVASFLSDRIVDEILDSLSSSHRKLANHFSRLNKSLPQREDLEVELVEEKPVKRAILTVEDLTEVERLEDLDTCMMTPKSKRKSIHSRMLRPVSRAFEMEFDLDKALEEVPIHIEDPPFPSVRQEKRSSGLISELPSEEGRRLEHFTKLRPKRNKKQQPTQAAVCTISILPQDGEQNGLMGRVDEGVDEFFTKKVTKMDCKRSSSRSSDAHELGEGDEKKKRDSRRSGFLNLIKSRSRSERPPTVLMTEELSSPKGAMRSPPVDTTRKEIKAAEHNGAPDRTEEIKTPEPLEEGPAEEAGRAERSDSRGSPQGGRRYVQVMGSGLLAEMKAKQERRAACAQKKLGNDVISQDPSSPVSCNTERLEGGATVPKLQPGLPEARFGSGTPEKNAKAEPRVDGGCRSRSSSSMPTSPKPLLQSPKPSPSARPSIPQKPRTASRPEDTPDSPSGPSSPKVALLPPILKKVSSDKERDGQNSSQSSPRSFSQEASRRSWGPAQEYQEQKQRSSGKDGHQGSKCSDSGEEAEKEFIFV
- affinity for barbed end-bound CP lower than for free CP (CP [3]; ref 23): 10- to 100 fold
- affinity for barbed end-bound CP lower than for free CP (CP [3]; ref 29): 200 fold

Second part, led by results:

- kon (CP [1]): 1.6e+06 M⁻¹ s⁻¹
- koff (CP [1]; pH 7.0): 0.0052 s⁻¹
- koff (CP (β) D44N): >0.1 s⁻¹
- Kon (CP (β) Y64F): 460000 M⁻¹ s⁻¹
- koff (CP (β) Y64F): 0.0046 s⁻¹
- koff (CP (β) D63N): >0.1 s⁻¹
- koff (CP (β) D67N): >0.1 s⁻¹
B1: GST-CA92: GST fusion of mouse CARMIL residues 962–1053 (protein)
chain: FPSVRQEKRSSGLISELPSEEGRRLEHFTKLRPKRNKKQQPTQAAVCTISILPQDGEQNGLMGRVDEGVDEFFTKKVTKMDCKRSSSRSSDA
modifications: left off: GST, end not stated, kept
- CP inhibitory activity of GST-CARMIL constructs (CPfull (wild type CP)): strongest CP inhibitory effect

- koff (CP [1]; pH 7.0): >0.1 s⁻¹
- KD (in words) (CP [1]; SPR, pH 7.0): micromolar range
B2: GST-CA63: GST fusion of mouse CARMIL residues 962–1024 (protein)
chain: FPSVRQEKRSSGLISELPSEEGRRLEHFTKLRPKRNKKQQPTQAAVCTISILPQDGEQNGLMG
modifications: left off: GST, end not stated, kept

- kon (CP [1]): 230000 M⁻¹ s⁻¹
- koff (CP [1]; pH 7.0): 0.019 s⁻¹
B4: GST-CA76: GST fusion of mouse CARMIL residues 962–1037 (protein)
chain: FPSVRQEKRSSGLISELPSEEGRRLEHFTKLRPKRNKKQQPTQAAVCTISILPQDGEQNGLMGRVDEGVDEFFTKK
modifications: left off: GST, end not stated, kept

Source: article PMC2897767, “Two Distinct Mechanisms for Actin Capping Protein Regulation—Steric and Allosteric Inhibition” (PLoS Biology, 2010)
